# From FireProtDB (doi:10.1021/bi051013y)
# B1: wild type, Q56QW9 (protein)
# chain: AYAQWVIILIHNVGQQNVKIKNLNASWGKLYADGDKDTEVPASKYEGMVIAPGDQVQINACGREDAAEGTTGTFDLVDPNDSDKQVRHISWDCPWGTKANSWVVGGSNSKWMIEYTGQNLDSGALGTITVNTLKIGN
# Conditions: Pleurotus ostreatus, Thermal, whole UniProt chain shown
# [1] = pH 6, 25 °C, Absorbance, Carbonate 10 mM, reversible: yes
# [2] = pH 6, Absorbance, Carbonate 10 mM, reversible: yes
# [3] = pH 6, absorbance, HEPES, transition: 2, reversible: YES
# [4] = pH 8, 25 °C, Absorbance, HEPES 10 mM, reversible: yes
# [5] = pH 8, Absorbance, HEPES 10 mM, reversible: yes
# [6] = pH 8, absorbance, HEPES, transition: 2, reversible: YES
# [7] = pH 9, Absorbance, Borate 10 mM, reversible: yes
# [8] = pH 9, absorbance, HEPES, transition: 2, reversible: YES
# [9] = pH 10, 25 °C, Absorbance, Carbonate 10 mM, reversible: yes
# [10] = pH 10, Absorbance, Carbonate 10 mM, reversible: yes
# [11] = pH 10, absorbance, HEPES, transition: 2, reversible: YES
# [12] = pH 11, 25 °C, Absorbance, Carbonate 10 mM, reversible: yes
# [13] = pH 11, Absorbance, Carbonate 10 mM, reversible: yes
protein,measurement,setting,value
B1,heat capacity change of unfolding,[1],2.87 kcal/mol/K
same,unfolding enthalpy (van 't Hoff),[1],62.9 kcal/mol
same,unfolding free energy,[1],7.27 kcal/mol
same,Tm,[2],48.6 °C
same,unfolding enthalpy (van 't Hoff),[2],130 kcal/mol
same,Tm,[3],48.6 °C
same,unfolding enthalpy (van 't Hoff),[3],130 kcal/mol
same,unfolding enthalpy (calorimetric),"pH 6, absorbance, HEPES",62.9 kcal/mol
same,unfolding free energy,"pH 6, absorbance, HEPES",7.27 kcal/mol
same,Tm,"pH 7, absorbance, HEPES, transition: 3, reversible: YES",54.6 °C
same,heat capacity change of unfolding,[4],2.87 kcal/mol/K
same,unfolding enthalpy (van 't Hoff),[4],64.5 kcal/mol
same,unfolding free energy,[4],8.94 kcal/mol
same,Tm,[5],51.2 °C
same,unfolding enthalpy (van 't Hoff),[5],140 kcal/mol
same,Tm,[6],51.2 °C
same,unfolding enthalpy (van 't Hoff),[6],140 kcal/mol
same,unfolding enthalpy (calorimetric),"pH 8, absorbance, HEPES",64.5 kcal/mol
same,unfolding free energy,"pH 8, absorbance, HEPES",8.94 kcal/mol
same,Tm,[7],47.2 °C
same,unfolding enthalpy (van 't Hoff),[7],130 kcal/mol
same,Tm,[8],47.2 °C
same,unfolding enthalpy (van 't Hoff),[8],130 kcal/mol
same,unfolding enthalpy (calorimetric),"pH 9, absorbance, HEPES",66.2 kcal/mol
same,unfolding free energy,"pH 9, absorbance, HEPES",7.05 kcal/mol
same,heat capacity change of unfolding,[9],2.87 kcal/mol/K
same,unfolding enthalpy (van 't Hoff),[9],60.5 kcal/mol
same,unfolding free energy,[9],3.47 kcal/mol
same,Tm,[10],39.4 °C
same,unfolding enthalpy (van 't Hoff),[10],102 kcal/mol
same,Tm,[11],39.4 °C
same,unfolding enthalpy (van 't Hoff),[11],102 kcal/mol
same,unfolding enthalpy (calorimetric),"pH 10, absorbance, HEPES",60.5 kcal/mol
same,unfolding free energy,"pH 10, absorbance, HEPES",3.47 kcal/mol
same,heat capacity change of unfolding,[12],2.87 kcal/mol/K
same,unfolding enthalpy (van 't Hoff),[12],66.4 kcal/mol
same,unfolding free energy,[12],2.32 kcal/mol
same,Tm,[13],34.6 °C
same,unfolding enthalpy (van 't Hoff),[13],93.9 kcal/mol
same,unfolding enthalpy (calorimetric),"pH 11, absorbance, HEPES",66.4 kcal/mol
same,unfolding free energy,"pH 11, absorbance, HEPES",2.32 kcal/mol
